T1: human DLL3 antigen (human, UniProt Q9NYJ7 27-492, limits assumed)
T1 construct: also called immobilized human DLL3; recombinant human DLL3
T1 sequence (looked up): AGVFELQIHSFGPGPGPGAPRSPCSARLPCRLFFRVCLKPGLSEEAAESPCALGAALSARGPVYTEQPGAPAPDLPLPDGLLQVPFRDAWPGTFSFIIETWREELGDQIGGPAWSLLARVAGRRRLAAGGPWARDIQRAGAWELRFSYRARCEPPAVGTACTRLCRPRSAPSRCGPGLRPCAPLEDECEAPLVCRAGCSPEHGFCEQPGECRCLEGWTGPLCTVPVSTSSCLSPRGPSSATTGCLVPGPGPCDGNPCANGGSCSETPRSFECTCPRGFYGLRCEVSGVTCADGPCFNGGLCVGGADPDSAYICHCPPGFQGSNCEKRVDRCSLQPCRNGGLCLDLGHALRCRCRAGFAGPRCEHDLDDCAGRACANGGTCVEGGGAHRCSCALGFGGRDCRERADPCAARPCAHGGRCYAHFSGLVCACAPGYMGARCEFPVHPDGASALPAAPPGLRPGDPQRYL


Target: T1, human DLL3 antigen
Experiment: ELISA or flow cytometry screen

| Binder | binding result |
| --- | --- |
| SC16.21 (antibody, V domains shown, murine mAb) VH: QVQLQQSGPELVKPGASVKISCKASGYAFSSSWMNWVKQRPGKGLEWIGRIYPGDGDTNYNGKFKGKATLTADKSSSTAYMQLSSLTSEDSAVYFCAMGIYNYDGSRYYSMDYWGQGTSVTVSS VL: DIVMTQSPSSLAMSVGQKVTMSCKSSQSLLNSSNQKNYLAWYQQEPGQSPKLLVSFASTRESGVPDRFTGSGSGTDFTLTISGVQAEDLAVYYCQQHYSIPLTFGAGTKLELK | binds |
| SC16.19 (antibody, V domains shown, murine mAb) VH: EVQLQQSGAELVRPGASVKLSCTASGFNIKDSLLHWVKQRPEKGLEWIGWIDPEDGETKYAPNFQDKATITTDSSSNTAYLQLISLTSVDTAIYYCAYGNYVRHFDYWGQGTTLTVSS VL: DIQMTQSPSSLSASLGGKVTFTCKASQDIHKYVAWYQHKPGKGPRLLIHYTSTLQPGISSRFSGSGSGRDYSFSISNLEPEDIATYYCLQYNNLYTFGGGTKLEIKR | binds |
| SC16.18 (antibody, V domains shown, murine mAb) VH: EVKLEESGGGLVQPGESMKLSCAASGFTFSDAWMDWVRQSPEKGLEWVAEIRNKANNHATYYAESVKGKFTISRDDSKSRVYLQMNNLRAADTGIYYCTAYSNFAYWGQGTLVTVST VL: DIQMTQTTSSLSASLGDRVTISCRASQNIINYLNWYQQKPDGTVKLLIYYTSRLHSGVPSRFSGSGSGTDYSLTISNLEPEDIATYYCQQYSERPYTFGGGTKLEIKR | binds |
| SC16.41 (antibody, V domains shown, murine mAb) VH: EVKLEESGGGLVQFGGSMKLSCAASGFTFSDAWMDWVRQSPEKGLEWVAEIRNKANNHATYYPESVKGRFTISRDDSKSRVYLQMNNLRAEDTGIYYCTGYSSFAYWGQGTLVTVSA VL: DIQMTQTTSSLSASLGDRVTISCRASQDVINYLNWYQQKPDGTVKLLIYYTSRLHSGVPSRFSGSGSRTDYSLTISNLEPEDIATYYCQQYSERPYTFGGGTKLEIKR | binds |
| SC16.22 (antibody, V domains shown, murine mAb) VH: QVQLQQPGAELVKPGASVKLSCKASGYTFTTYWMHWVKQRPGQGLEWIGEIDPSDSYTYYNQKFKGKATLTVDKSSSTAYMQLSSLTSEDSAVYYCARGDYGNPYAMDYWGQGSSVTVSS VL: DIQMTQTTSSLSASLGDRVTISCRASQDIKNYLNWYQQKPDGTVKPLIYYTSRVHSGVPSRFSGSGSGTDYSLTISNLEQEDIATYFCQQGYTLPFTFGSGTKLE | binds |
| SC16.3 (antibody, V domains shown, murine mAb; also called mAb SC16.3) VH: QVTLKESGPGILQPSQTLSLTCSFSGFSLSTSGMGVGWIRQPSGKGLEWLAHIWWDDVKRYNPALKSRLTISKDTSSSQVFLKIASVDTADTATYYCARIADYGGDYYAMDYWGQGTSVTVSS VL: QIVLTQSPAIMSVSLGERVTMTCTASSSVSSSYLHWYQQKPGSSPKLWIYSTSNLASGVPARFSGSGSGTSYFFTISSMEAEDAATYYCHQYHRSPFTFGAGTKLKIR | binds |
| SC16.23 (antibody, V domains shown, murine mAb) VH: QVTLKESGPGILQPSQTLSLTCSFSGFSLSTSNTGIGWIRQPSGTGLEWLAHIWWNDDKYYNPSLKSRLTISKETSNNQVFLKITNVDTADTASYFCVQIGRDYSNYAWYFDVWGAGTTVTVSS VL: QIVLTQSPAIMSASPGEKVTLTCSASSSVSSRYLYWYQQKPGSSPKLWIYSTSNLASGVPARFSGSGSGTSYSLIISSMEAEDAASYFCHQWSNYPLTFGAGTKLELK | binds |
| SC16.20 (antibody, V domains shown, murine mAb) VH: QVQLQQSGTELVRPGTSVRVSCKASGYAFGNHLIEWVKQRPGQGLEWIGVINPGTGGTHYNEKFKDKARLTADKSSNTAYMHLNSLTSDDSAVYFCARSPYDYHEGAMDYWGQGTSVTVSS VL: EIQMTQSPSSMSASLGDRITITCQATQDIVKNLNWYQQKPGKPPSFLIYYATELAEGVPSRFSGSGSGSDYSLTIRNLESEDFADHYCLQFYEFPFTFGAGTKLELK | binds |

Reference: patent US20140370037A1 (published 2014)
